Results reported in US11746139B2, “IL-7Rαγc binding compounds” (MEDIKINE, INC., priority 2020, dated 2023).

Legend:
IL-7Rα = IL-7Rα (Homo sapiens, UniProt P16871); assay: Competition binding ELISA with bn407::NA-HRP precomplex; details: bn407:NA-HRP 10 nM final; read-out: Competitive Binding ELISA bn407:NA-HRP (10 nMf) IC50 M
Rγc subunit = target: T1, Rγc subunit (Homo sapiens, UniProt P31785); assay: Phage competitive binding assay characterizing the Rγc ligand binding site; details: for Competition with Phage Clone SEQ ID NO: 198 (Family 1A) for binding to the Rγc subunit: phage clone 198, immobilized Rγc ECD; for Competition with Phage Clone SEQ ID NO: 224 (Family 1B) for binding to the Rγc subunit: phage clone 224, immobilized Rγc ECD; for Competition with Phage Clone SEQ ID NO: 236 (Family 2) for binding to the Rγc subunit: phage clone 236, immobilized Rγc ECD; for Competition with Phage Clone SEQ ID NO: 248 (Family 3) for binding to the Rγc subunit: phage clone 248, immobilized Rγc ECD; for Competition with Phage Clone SEQ ID NO: 266 (Family 4) for binding to the Rγc subunit: phage clone 266, immobilized Rγc ECD; for Competition with Phage Clone SEQ ID NO: 930 (Family 5) for binding to the Rγc subunit: phage clone 930, immobilized Rγc ECD
T1 construct: purchased ACRObiosystems, Inc. ILG-H5256

IL-7Rα subunit = IL-7Rα subunit (Homo sapiens, UniProt P16871); assay: Phage competitive binding assay characterizing the IL-7Rα ligand binding site
Sequence of IL-7Rα subunit (P16871 21-236): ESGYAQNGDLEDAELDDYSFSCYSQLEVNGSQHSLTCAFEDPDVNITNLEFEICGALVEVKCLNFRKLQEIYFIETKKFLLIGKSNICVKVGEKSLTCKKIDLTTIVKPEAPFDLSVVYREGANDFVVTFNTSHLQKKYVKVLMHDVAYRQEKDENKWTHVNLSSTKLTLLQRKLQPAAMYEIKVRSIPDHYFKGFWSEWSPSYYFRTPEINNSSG

T1 sequence (P31785 23-254): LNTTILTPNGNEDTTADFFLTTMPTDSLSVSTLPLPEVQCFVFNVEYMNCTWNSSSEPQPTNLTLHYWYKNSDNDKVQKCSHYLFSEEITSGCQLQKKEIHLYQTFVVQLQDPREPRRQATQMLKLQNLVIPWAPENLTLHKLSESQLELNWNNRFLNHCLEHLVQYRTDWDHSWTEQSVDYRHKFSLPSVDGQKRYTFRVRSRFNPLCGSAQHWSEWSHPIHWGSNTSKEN
Sequence of IL-7Rα (P16871 21-236): as the sequence (P16871 21-236) above

| Compound | IC50 (IL-7Rα) | Competition with Phage Clone SEQ ID NO: 198 (Family 1A) for binding to the Rγc subunit (Rγc subunit) | Competition with Phage Clone SEQ ID NO: 224 (Family 1B) for binding to the Rγc subunit (Rγc subunit) | Competition with Phage Clone SEQ ID NO: 236 (Family 2) for binding to the Rγc subunit (Rγc subunit) | Competition with Phage Clone SEQ ID NO: 248 (Family 3) for binding to the Rγc subunit (Rγc subunit) | Competition with Phage Clone SEQ ID NO: 266 (Family 4) for binding to the Rγc subunit (Rγc subunit) | Competition with Phage Clone SEQ ID NO: 930 (Family 5) for binding to the Rγc subunit (Rγc subunit) | also measured |
| --- | --- | --- | --- | --- | --- | --- | --- | --- |
| CC[C@H](C)[C@H](N)C(=O)N1CCC[C@H]1C(=O)N[C@@H](Cc1c[nH]c2ccccc12)C(=O)N[C@H]1CSSC[C@@H](C(=O)N[C@@H](C)C(=O)N[C@@H](Cc2c[nH]c3ccccc23)C(=O)N[C@@H](CC(C)C)C(=O)N[C@@H](CCCCN)C(=O)N[C@@H](CCC(N)=O)C(=O)N[C@@H](CCSC)C(=O)NCC(=O)NCC(=O)O)NC(=O)[C@H](CCC(N)=O)NC(=O)[C@H](CC(C)C)NC(=O)CNC(=O)CNC(=O)[C@@H]2CCCN2C(=O)[C@H](CC(=O)O)NC(=O)[C@H](CC(C)C)NC(=O)[C@H]([C@@H](C)O)NC1=O [SEQ ID NO: 429, I P W C T L D P G G L Q C A W L K Q M] | 466 nM |  |  |  |  |  |  |  |
| M C W L E W G E W V G S C L [SEQ ID NO: 236] |  | + (Rγc ligand competes with phage binding.) | + (Rγc ligand competes with phage binding.) | + (Rγc ligand competes with phage binding.) | + (Rγc ligand competes with phage binding.) | + (Rγc ligand competes with phage binding.) | − |  |
| CC[C@H](C)[C@H](N)C(=O)N1CCC[C@H]1C(=O)N[C@@H](Cc1c[nH]c2ccccc12)C(=O)N[C@H]1CSSC[C@@H](C(=O)N[C@@H](C)C(=O)N[C@@H](Cc2c[nH]c3ccccc23)C(=O)N[C@@H](CC(C)C)C(=O)N[C@@H](Cc2c[nH]cn2)C(=O)N[C@@H](CCC(N)=O)C(=O)N[C@@H](CCSC)C(=O)NCC(=O)NCC(=O)O)NC(=O)[C@H](CCC(N)=O)NC(=O)[C@H](CC(C)C)NC(=O)CNC(=O)CNC(=O)[C@@H]2CCCN2C(=O)[C@H](CC(=O)O)NC(=O)[C@H](CC(C)C)NC(=O)[C@H]([C@@H](C)O)NC1=O [SEQ ID NO: 430, I P W C T L D P G G L Q C A W H K Q M] | 682 nM |  |  |  |  |  |  |  |
| CC[C@H](C)[C@H](N)C(=O)N1CCC[C@H]1C(=O)N[C@@H](Cc1c[nH]c2ccccc12)C(=O)N[C@H]1CSSC[C@@H](C(=O)N[C@@H](C)C(=O)N[C@@H](Cc2c[nH]c3ccccc23)C(=O)N[C@@H](CC(C)C)C(=O)N[C@@H](C)C(=O)N[C@@H](CCC(N)=O)C(=O)N[C@@H](CCSC)C(=O)NCC(=O)NCC(=O)O)NC(=O)[C@H](CCC(N)=O)NC(=O)[C@H](CC(C)C)NC(=O)CNC(=O)CNC(=O)[C@@H]2CCCN2C(=O)[C@H](CC(=O)O)NC(=O)[C@H](CC(C)C)NC(=O)[C@H]([C@@H](C)O)NC1=O [SEQ ID NO: 428, I P W C T L D P G G L Q C A W L A Q M] | 490 nM |  |  |  |  |  |  |  |
| CC[C@H](C)[C@H](N)C(=O)N1CCC[C@H]1C(=O)N[C@@H](Cc1c[nH]c2ccccc12)C(=O)N[C@H]1CSSC[C@@H](C(=O)N[C@@H](C)C(=O)N[C@@H](Cc2ccccc2)C(=O)N[C@@H](CC(C)C)C(=O)N[C@@H](CCCNC(=N)N)C(=O)N[C@@H](CCC(N)=O)C(=O)N[C@@H](CCSC)C(=O)NCC(=O)NCC(=O)O)NC(=O)[C@H](CCC(N)=O)NC(=O)[C@H](CC(C)C)NC(=O)CNC(=O)CNC(=O)[C@@H]2CCCN2C(=O)[C@H](CC(=O)O)NC(=O)[C@H](CC(C)C)NC(=O)[C@H]([C@@H](C)O)NC1=O [SEQ ID NO: 422, I P W C T L D P G G L Q C A F L R Q M] | 903 nM |  |  |  |  |  |  |  |
| V V C Q D W E G V E L C W Q [SEQ ID NO: 965] |  |  |  |  |  |  |  | Competition with Phage Clone SEQ ID NO: 5 (Family 1) for binding to the IL-7Rα subunit (IL-7Rα subunit; phage clone 5, immobilized IL-7Rα ECD): 0; Competition with Phage Clone SEQ ID NO: 43 (Family 3A) for binding to the IL-7Rα subunit (IL-7Rα subunit; phage clone 43, immobilized IL-7Rα ECD): 0; Competition with Phage Clone SEQ ID NO: 104 (Family 3B) for binding to the IL-7Rα subunit (IL-7Rα subunit; phage clone 104, immobilized IL-7Rα ECD): 0; Competition with Phage Clone SEQ ID NO: 313 (Family 2) for binding to the IL-7Rα subunit (IL-7Rα subunit; phage clone 313, immobilized IL-7Rα ECD): 0; Competition with Phage Clone SEQ ID NO: 965 (N/A) for binding to the IL-7Rα subunit (IL-7Rα subunit; phage clone 965, immobilized IL-7Rα ECD): 0 |
| R T C T E W E N V V L C W V [SEQ ID NO: 202] |  | +^1 (Rγc ligand competes with phage binding.) | + (Rγc ligand competes with phage binding.) | + (Rγc ligand competes with phage binding.) | + (Rγc ligand competes with phage binding.) | + (Rγc ligand competes with phage binding.) | − |  |
| CC[C@H](C)[C@H](N)C(=O)N1CCC[C@H]1C(=O)N[C@@H](Cc1c[nH]c2ccccc12)C(=O)N[C@H]1CSSC[C@@H](C(=O)N[C@@H](C)C(=O)N[C@@H](Cc2c[nH]c3ccccc23)C(=O)N[C@@H](CC(C)C)C(=O)N[C@@H](CCCNC(=N)N)C(=O)N[C@@H](CCC(N)=O)C(=O)N[C@@H](C)C(=O)NCC(=O)NCC(=O)O)NC(=O)[C@H](CCC(N)=O)NC(=O)[C@H](CC(C)C)NC(=O)CNC(=O)CNC(=O)[C@@H]2CCCN2C(=O)[C@H](CC(=O)O)NC(=O)[C@H](CC(C)C)NC(=O)[C@H]([C@@H](C)O)NC1=O [SEQ ID NO: 432, I P W C T L D P G G L Q C A W L R Q A] | 942 nM |  |  |  |  |  |  |  |
| D C S M W E J G V E L C W [SEQ ID NO: 224] |  | + (Rγc ligand competes with phage binding.) | + (Rγc ligand competes with phage binding.) | + (Rγc ligand competes with phage binding.) | + (Rγc ligand competes with phage binding.) | + (Rγc ligand competes with phage binding.) | − |  |
| S L L K C Y N A S T C A S V F [SEQ ID NO: 930] |  | −^2 | − | − | − | − | + (Rγc ligand competes with phage binding.) |  |
| Y D C R I A Q V G E L C D L [SEQ ID NO: 58, IL-2Rβ Ligand, reference compound] |  | − | − | − | − | − | − | Competition for binding to the binding site with the group of Rγc ligands (Rγc subunit): does not compete |
